{"source": "patent US20170101664", "biological_target": "biosensor SEQ ID NO:47 (KbiotinkkafpaayiaeG-photo-cleavable linker-…rrrqrrkkr)", "data": [{"protein": "Lyn kinase (protein) MGCIKSKGKDSLSDDGVDLKTQPVRNTERTIYVRDPTSNKQQRPVPESQLLPGQRFQTKDPEEQGDIVVALYPYDGIHPDDLSFKKGEKMKVLEEHGEWWKAKSLLTKKEGFIPSNYVAKLNTLETEEWFFKDITRKDAERQLLAPGNSAGAFLIRESETLKGSFSLSVRDFDPVHGDVIKHYKIRSLDNGGYYISPRITFPCISDMIKHYQKQADGLCRRLEKACISPKPQKPWDKDAWEIPRESIKLVKRLGAGQFGEVWMGYYNNSTKVAVKTLKPGTMSVQAFLEEANLMKTLQHDKLVRLYAVVTREEPIYIITEYMAKGSLLDFLKSDEGGKVLLPKLIDFSAQIAEGMAYIERKNYIHRDLRAANVLVSESLMCKIADFGLARVIEDNEYTAREGAKFPIKWTAPEAINFGCFTIKSDVWSFGILLYEIVTYGKIPYPGRTNADVMTALSQGYRMPRVENCPDELYDIMKMCWKEKAEERPTFDYLQSVLDDFYTATEGQYQQQP", "values": [{"measurement": "phosphorylation in the in vitro kinase assay", "value": "Lyn kinase did not phosphorylate the biosensor"}]}]}
